Measured values as given in publication PMC5706562.

Molecular target: Psy2 with aa 25–129 deleted, fused to lexA-DBD (S. cerevisiae)
Test: two-hybrid

percent reduction of the two-hybrid interaction: 50%
B1: DDC2 fused to B42-AD (natural protein)
chain: MRRETVGEFSSDDDDDILLELGTRPPRFTQIPPSSAALQTQIPTTLEVTTTTLNNKQSKNDNQLVNQLNKAQGEASMLRDKINFLNIEREKEKNIQAVKVNELQVKHLQELAKLKQELQKLEDEKKFLQMEARGKSKREVITNVKPPSTTLSTNTNTITPDSSSVAIEAKPQSPQSKKRKISDNLLKKNMVPLNPNRIIPDETSLFLESILLHQIIGADLSTIEILNRLKLDYITEFKFKNFVIAKGAPIGKSIVSLLLRCKKTLTLDRFIDTLLEDIAVLIKEISVHPNESKLAVPFLVALMYQIVQFRPSATHNLALKDCFLFICDLIRIYHHVLKVPIHESNMNLHVEPQIFQYELIDYLIISYSFDLLEGILRVLQSHPKQTYMEFFDENILKSFEFVYKLALTISYKPMVNVIFSAVEVVNIITSIILNMDNSSDLKSLISGSWWRDCITRLYALLEKEIKSGDVYNENVDTTTLHMSKYHDFFGLIRNIGDNELGGLISKLIYTDRLQSVPRVISKEDIGMDSDKFTAPIIGYKMEKWLLKLKDEVLNIFENLLMIYGDDATIVNGEMLIHSSKFLSREQALMIERYVGQDSPNLDLRCHLIEHTLTIIYRLWKDHFKQLREEQIKQVESQLIMSLWRFLVCQTETVTANEREMRDHRHLVDSLHDLTIKDQASYYEDAFEDLPEYIEEELKMQLNKRTGRIMQVKYDEKFQEMARTILESKSFDLTTLEEADSLYISMGL
